Here are results for 7 molecules from patent US20260049138A1.

In experiment [1] the target is biotinylated CD3ε epitope peptide. In words: SPR, Biacore T100, biotinylated CD3ε epitope peptide on CM5 via streptavidin, antibody as analyte. For orientation: SPR reads the build-up and loss of mass on a sensor chip optically.
Experiment [2] deals with CD3ε homodimer protein (human) (UniProt P07766). Kind of experiment: SPR.

In general, Kd refers to the free concentration of one partner at which half of the binding sites on the other are occupied at equilibrium, for simple one-to-one binding. A high value points to a looser complex.

CD3ε homodimer protein (human), sequence (P07766 23-126 limits assumed): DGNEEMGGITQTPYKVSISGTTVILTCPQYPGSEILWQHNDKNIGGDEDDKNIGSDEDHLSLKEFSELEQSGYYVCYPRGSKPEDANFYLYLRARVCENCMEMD

B1: CE115_M (antibody, V domains shown)
VH: EVQLVETGGSLVQPGKSLKLTCATSGFTFSNAWMHWVRQSPEKQLEWVAQIKAKSNNYATYYAESVKGRFTISRDDSKSNIYLQMNSLKEEDTAVYYCRYVHYGAYYGVDAWGQGTSVTVSS
VL: DVVMTQTPVSMSVSLGGQVSISCRSSQSLVHNNGNTYVSWYIQKPSQSPQLLIYKVSNRFSGISDRFSGSGSGTDFTLKISRVEPDDLGVYYCGQGTQDPYTFGAGTKLELK
In experiment [1], B1 gave a Kd of 67 nM.

B2: GLS3000 H27dT (antibody, name in Kabat numbering, V domains shown)
VH: QVQLVESGGGVVQPGRSLRLSCAASGFTFSNAWMHWVRQAPGKGLEWVAQIKAKSNNYATYYAESVKGRFTISRDDSKNSLYLQMNSLKTEDTAVYYCRYVHYGAYYGVDAWGQGTTVTVSS
VL: DIVMTQSPLSLPVTPGEPASISCRSSQSLVTSNRNTYLHWYQQKPGQAPRLLIYKVSNRFSGVPDRFSGSGSGTDFTLKISRVEAEDVGVYYCGQGTQVPYTFGQGTKLEIK
Take B2: in experiment [2], the KD ratio to GLS3000 turned out to be 13000.

B3: GLS3000 G91S (antibody, name in Kabat numbering, V domains shown)
VH: QVQLVESGGGVVQPGRSLRLSCAASGFTFSNAWMHWVRQAPGKGLEWVAQIKAKSNNYATYYAESVKGRFTISRDDSKNSLYLQMNSLKTEDTAVYYCRYVHYGAYYGVDAWGQGTTVTVSS
VL: DIVMTQSPLSLPVTPGEPASISCRSSQSLVHSNRNTYLHWYQQKPGQAPRLLIYKVSNRFSGVPDRFSGSGSGTDFTLKISRVEAEDVGVYYCGQSTQVPYTFGQGTKLEIK
Turning to B3, in experiment [2], the KD ratio to GLS3000 was 72100.

B4: GLS3000 H34R (antibody, name in Kabat numbering, V domains shown)
VH: QVQLVESGGGVVQPGRSLRLSCAASGFTFSNAWMHWVRQAPGKGLEWVAQIKAKSNNYATYYAESVKGRFTISRDDSKNSLYLQMNSLKTEDTAVYYCRYVHYGAYYGVDAWGQGTTVTVSS
VL: DIVMTQSPLSLPVTPGEPASISCRSSQSLVHSNRNTYLRWYQQKPGQAPRLLIYKVSNRFSGVPDRFSGSGSGTDFTLKISRVEAEDVGVYYCGQGTQVPYTFGQGTKLEIK
Consider B4, for which, in experiment [2], the KD ratio to GLS3000 came to 85800.

B5: GLS3000 H27dV (antibody, name in Kabat numbering, V domains shown)
VH: QVQLVESGGGVVQPGRSLRLSCAASGFTFSNAWMHWVRQAPGKGLEWVAQIKAKSNNYATYYAESVKGRFTISRDDSKNSLYLQMNSLKTEDTAVYYCRYVHYGAYYGVDAWGQGTTVTVSS
VL: DIVMTQSPLSLPVTPGEPASISCRSSQSLVVSNRNTYLHWYQQKPGQAPRLLIYKVSNRFSGVPDRFSGSGSGTDFTLKISRVEAEDVGVYYCGQGTQVPYTFGQGTKLEIK
As for B5, in experiment [2], the KD ratio to GLS3000 was 354.

B6: GLS3000 G89R (antibody, name in Kabat numbering, V domains shown)
VH: QVQLVESGGGVVQPGRSLRLSCAASGFTFSNAWMHWVRQAPGKGLEWVAQIKAKSNNYATYYAESVKGRFTISRDDSKNSLYLQMNSLKTEDTAVYYCRYVHYGAYYGVDAWGQGTTVTVSS
VL: DIVMTQSPLSLPVTPGEPASISCRSSQSLVHSNRNTYLHWYQQKPGQAPRLLIYKVSNRFSGVPDRFSGSGSGTDFTLKISRVEAEDVGVYYCRQGTQVPYTFGQGTKLEIK
As to B6, the KD ratio to GLS3000 in experiment [2] was determined as 4130.

B7: GLS3000 N28D (antibody, name in Kabat numbering, V domains shown)
VH: QVQLVESGGGVVQPGRSLRLSCAASGFTFSNAWMHWVRQAPGKGLEWVAQIKAKSNNYATYYAESVKGRFTISRDDSKNSLYLQMNSLKTEDTAVYYCRYVHYGAYYGVDAWGQGTTVTVSS
VL: DIVMTQSPLSLPVTPGEPASISCRSSQSLVHSDRNTYLHWYQQKPGQAPRLLIYKVSNRFSGVPDRFSGSGSGTDFTLKISRVEAEDVGVYYCGQGTQVPYTFGQGTKLEIK
In the case of B7, the KD ratio to GLS3000 in experiment [2] stood at 4460.
